{
  "source": "paper PMC280649",
  "about": "(BMC Biochemistry, 2003)",
  "key": {"[1]": {"target": "CD31 (Homo sapiens) (UniProt P16284)", "details": "cited from earlier work"}, "[2]": {"target": "NCAM (UniProt P13591)", "details": "cited from earlier work"}, "[3]": {"target": "CAR (Homo sapiens) (UniProt P78310)", "details": "cited from earlier work"}, "[4]": {"target": "CD150 (Homo sapiens) (UniProt Q13291)", "experiment": "SPR", "details": "cited from earlier work"}, "[5]": {"target": "the molecule itself", "experiment": "SPR"}, "[6]": {"target": "the molecule itself", "experiment": "SPR", "remark": "listed apart in the source"}},
  "note": "Values joined by “and” are separate entries in the source; they are usually repeats but may differ in a detail not shown here. Identical values can stand only once.",
  "data": [
    {"molecule": "CD31 (from UniProt P16284)", "values": [
      {"measurement": "Kd", "setting": "[1]", "value": 12.5, "unit": "µM"}
    ]},
    {"molecule": "NCAM (from UniProt P13591)", "values": [
      {"measurement": "Kd", "setting": "[2]", "value": 100, "unit": "µM"}
    ]},
    {"molecule": "CAR (from UniProt P78310)", "values": [
      {"measurement": "Kd", "setting": "[3]", "value": 16, "unit": "µM"}
    ]},
    {"molecule": "CD150 (from UniProt Q13291)", "values": [
      {"measurement": "Kd", "setting": "[4]", "value": 200, "unit": "µM"}
    ]},
    {"molecule": "mCD147d0-2rCD4d3+4 (mouse CD147 domains 0 to 2 fused to rat CD4 domains 3 and 4) (domain or fragment, UniProt P18572 22-325, looked up, biotin on the C-terminal biotinylation sequence (BirA enzyme) in the immobilised copy; the soluble copy was unbiotinylated) AAGFLKAPLSQERWAGGSVVLHCEAVGSPIPEIQWWFEGNAPNDSCSQLWDGARLDRVHIHAAYRQHAASSLSVDGLTAEDTGTYECRASSDPDRNHLTRPPRVKWVRAQASVVVLEPGTIQTSVQEVNSKTQLTCSLNSSGVDIVGHRWMRGGKVLQEDTLPDLHTKYIVDADDRSGEYSCIFLPEPVGRSEINVEGPPRIKVGKKSEHSSEGELAKLVCKSDASYPPITDWFWFKTSDTGEEEAITNSTEANGKYVVVSTPEKSQLTISNLDVNVDPGTYVCNATNAQGTTRETISLRVRSR", "values": [
      {"measurement": "Kd", "setting": "[5]", "value": "39 µM and 35 µM"},
      {"measurement": "koff", "setting": "[6]", "value": 0.7, "unit": "s⁻¹"},
      {"measurement": "t1/2", "setting": "[6]", "value": 1, "unit": "s"}
    ]}
  ]
}
